Test results taken from the array DNA melting data of Ke et al..

Experiment: melting temperature; melt of duplexes
Settings: sodium 0.0675 M; strand 1 µM

Substance | Tm
CGACGTGCGGCATGTGCTG+CAGCACATCTGGCACGTCG ((((((((...((((((((+))))))))...)))))))) | 51.1 °C
CGACGTGCGGCATGTGCTG+CAGCACATGATGCACGTCG ((((((((..(((((((((+)))))))))..)))))))) | 58.7 °C
CGACGTGCGGCATGTGCTG+CAGCACATGCAGCACGTCG ((((((((.((((((((((+)))))))))).)))))))) | 63.1 °C
CGACGTGCGGCATGTGCTG+CAGCACATGCTGCACGTCG ((((((((.((((((((((+)))))))))).)))))))) | 62.7 °C
CGACGTGCGGCATGTGCTG+CAGCACATGGGGCACGTCG ((((((((..(((((((((+)))))))))..)))))))) | 57.6 °C
CGACGTGCGGCATGTGCTG+CAGCACATGTCGCACGTCG (((((((((.(((((((((+))))))))).))))))))) | 63.5 °C
CGACGTGCGGCATGTGCTG+CAGCACATGTTGCACGTCG ((((((((..(((((((((+)))))))))..)))))))) | 57.6 °C
CGACGTGCGGCATGTGCTG+CAGCACATTCTGCACGTCG ((((((((.(.((((((((+)))))))).).)))))))) | 53.1 °C
CGACGTGCGGCATGTGCTG+CAGCACATTTCGCACGTCG (((((((((..((((((((+))))))))..))))))))) | 53.4 °C
CGACGTGCGGCATGTGCTG+CAGCACATTTTGCACGTCG ((((((((...((((((((+))))))))...)))))))) | 48.7 °C
CGACGTGCGGGATGTGCTG+CAGCACATAACGCACGTCG (((((((((..((((((((+))))))))..))))))))) | 59.4 °C
CGACGTGCGGGATGTGCTG+CAGCACATAAGGCACGTCG ((((((((...((((((((+))))))))...)))))))) | 51.1 °C
CGACGTGCGGGATGTGCTG+CAGCACATACAGCACGTCG ((((((((.(.((((((((+)))))))).).)))))))) | 56.5 °C
CGACGTGCGGGATGTGCTG+CAGCACATACTGCACGTCG ((((((((.(.((((((((+)))))))).).)))))))) | 56.9 °C
CGACGTGCGGGATGTGCTG+CAGCACATATCGCACGTCG (((((((((..((((((((+))))))))..))))))))) | 56.7 °C
CGACGTGCGGGATGTGCTG+CAGCACATATGGCACGTCG ((((((((...((((((((+))))))))...)))))))) | 50.8 °C
CGACGTGCGGGATGTGCTG+CAGCACATATTGCACGTCG ((((((((...((((((((+))))))))...)))))))) | 51.4 °C
CGACGTGCGGGATGTGCTG+CAGCACATCAAGCACGTCG ((((((((..(((((((((+)))))))))..)))))))) | 57.6 °C
CGACGTGCGGGATGTGCTG+CAGCACATCAGGCACGTCG ((((((((..(((((((((+)))))))))..)))))))) | 56.2 °C
CGACGTGCGGGATGTGCTG+CAGCACATCATGCACGTCG ((((((((..(((((((((+)))))))))..)))))))) | 57 °C
CGACGTGCGGGATGTGCTG+CAGCACATCGGGCACGTCG ((((((((..(((((((((+)))))))))..)))))))) | 56.1 °C
CGACGTGCGGGATGTGCTG+CAGCACATCGTGCACGTCG ((((((((..(((((((((+)))))))))..)))))))) | 56.2 °C
CGACGTGCGGGATGTGCTG+CAGCACATCTCGCACGTCG (((((((((.(((((((((+))))))))).))))))))) | 62.3 °C
CGACGTGCGGGATGTGCTG+CAGCACATCTTGCACGTCG ((((((((..(((((((((+)))))))))..)))))))) | 57.3 °C

Substance | Tm
CGACGTGCGGGATGTGCTG+CAGCACATGAAGCACGTCG ((((((((...((((((((+))))))))...)))))))) | 53.7 °C
CGACGTGCGGGATGTGCTG+CAGCACATGCAGCACGTCG ((((((((.(.((((((((+)))))))).).)))))))) | 57.2 °C
CGACGTGCGGGATGTGCTG+CAGCACATGGCGCACGTCG (((((((((..((((((((+))))))))..))))))))) | 57.5 °C
CGACGTGCGGGATGTGCTG+CAGCACATTAAGCACGTCG ((((((((...((((((((+))))))))...)))))))) | 53.9 °C
CGACGTGCGGGATGTGCTG+CAGCACATTAGGCACGTCG ((((((((...((((((((+))))))))...)))))))) | 51.9 °C
CGACGTGCGGGATGTGCTG+CAGCACATTATGCACGTCG ((((((((...((((((((+))))))))...)))))))) | 51.8 °C
CGACGTGCGGGATGTGCTG+CAGCACATTCCGCACGTCG ((((((((((.((((((((+)))))))).)))))))))) | 62.8 °C
CGACGTGCGGGATGTGCTG+CAGCACATTTGGCACGTCG ((((((((...((((((((+))))))))...)))))))) | 51.3 °C
CGACGTGCGGTATGTGCTG+CAGCACATAAGGCACGTCG ((((((((..(((((((((+)))))))))..)))))))) | 53 °C
CGACGTGCGGTATGTGCTG+CAGCACATACAGCACGTCG ((((((((.((((((((((+)))))))))).)))))))) | 59.5 °C
CGACGTGCGGTATGTGCTG+CAGCACATACCGCACGTCG (((((((((((((((((((+))))))))))))))))))) | 66 °C
CGACGTGCGGTATGTGCTG+CAGCACATACGGCACGTCG ((((((((.((((((((((+)))))))))).)))))))) | 58.5 °C
CGACGTGCGGTATGTGCTG+CAGCACATAGAGCACGTCG ((((((((..(((((((((+)))))))))..)))))))) | 56 °C
CGACGTGCGGTATGTGCTG+CAGCACATAGCGCACGTCG (((((((((.(((((((((+))))))))).))))))))) | 62.5 °C
CGACGTGCGGTATGTGCTG+CAGCACATATAGCACGTCG ((((((((..(((((((((+)))))))))..)))))))) | 56.4 °C
CGACGTGCGGTATGTGCTG+CAGCACATATGGCACGTCG ((((((((..(((((((((+)))))))))..)))))))) | 54 °C
CGACGTGCGGTATGTGCTG+CAGCACATCACGCACGTCG (((((((((..((((((((+))))))))..))))))))) | 56.7 °C
CGACGTGCGGTATGTGCTG+CAGCACATCCCGCACGTCG ((((((((((.((((((((+)))))))).)))))))))) | 59.9 °C
CGACGTGCGGTATGTGCTG+CAGCACATCTGGCACGTCG ((((((((...((((((((+))))))))...)))))))) | 51.6 °C
CGACGTGCGGTATGTGCTG+CAGCACATGAAGCACGTCG ((((((((...((((((((+))))))))...)))))))) | 55.3 °C
CGACGTGCGGTATGTGCTG+CAGCACATGCCGCACGTCG ((((((((((.((((((((+)))))))).)))))))))) | 63.4 °C
CGACGTGCGGTATGTGCTG+CAGCACATGCGGCACGTCG ((((((((.(.((((((((+)))))))).).)))))))) | 55.1 °C
CGACGTGCGGTATGTGCTG+CAGCACATGGCGCACGTCG (((((((((..((((((((+))))))))..))))))))) | 59.9 °C
CGACGTGCGGTATGTGCTG+CAGCACATGGTGCACGTCG ((((((((...((((((((+))))))))...)))))))) | 51.5 °C

Substance | Tm
CGACGTGCGGTATGTGCTG+CAGCACATGTCGCACGTCG (((((((((..((((((((+))))))))..))))))))) | 57.1 °C
CGACGTGCGGTATGTGCTG+CAGCACATTATGCACGTCG ((((((((...((((((((+))))))))...)))))))) | 51.3 °C
CGACGTGCGGTATGTGCTG+CAGCACATTCAGCACGTCG ((((((((.(.((((((((+)))))))).).)))))))) | 54.2 °C
CGACGTGCGGTATGTGCTG+CAGCACATTTAGCACGTCG ((((((((...((((((((+))))))))...)))))))) | 54.5 °C
CGACGTGCGTAATGTGCTG+CAGCACATAAAGCACGTCG ((((((((.(.((((((((+)))))))).).)))))))) | 55 °C
CGACGTGCGTAATGTGCTG+CAGCACATAACGCACGTCG ((((((((((.((((((((+)))))))).)))))))))) | 59.1 °C
CGACGTGCGTAATGTGCTG+CAGCACATACAGCACGTCG ((((((((...((((((((+))))))))...)))))))) | 54 °C
CGACGTGCGTAATGTGCTG+CAGCACATACCGCACGTCG (((((((((..((((((((+))))))))..))))))))) | 54.2 °C
CGACGTGCGTAATGTGCTG+CAGCACATACTGCACGTCG ((((((((...((((((((+))))))))...)))))))) | 52.4 °C
CGACGTGCGTAATGTGCTG+CAGCACATAGCGCACGTCG (((((((((..((((((((+))))))))..))))))))) | 56.1 °C
CGACGTGCGTAATGTGCTG+CAGCACATAGGGCACGTCG ((((((((...((((((((+))))))))...)))))))) | 51.1 °C
CGACGTGCGTAATGTGCTG+CAGCACATATCGCACGTCG (((((((((..((((((((+))))))))..))))))))) | 55.6 °C
CGACGTGCGTAATGTGCTG+CAGCACATATTGCACGTCG ((((((((...((((((((+))))))))...)))))))) | 50.5 °C
CGACGTGCGTAATGTGCTG+CAGCACATCACGCACGTCG ((((((((((.((((((((+)))))))).)))))))))) | 58 °C
CGACGTGCGTAATGTGCTG+CAGCACATCCCGCACGTCG (((((((((..((((((((+))))))))..))))))))) | 53.5 °C
CGACGTGCGTAATGTGCTG+CAGCACATCGAGCACGTCG ((((((((...((((((((+))))))))...)))))))) | 53.1 °C
CGACGTGCGTAATGTGCTG+CAGCACATCGTGCACGTCG ((((((((...((((((((+))))))))...)))))))) | 44.3 °C
CGACGTGCGTAATGTGCTG+CAGCACATCTTGCACGTCG ((((((((...((((((((+))))))))...)))))))) | 49.7 °C
CGACGTGCGTAATGTGCTG+CAGCACATGACGCACGTCG ((((((((((.((((((((+)))))))).)))))))))) | 58 °C
CGACGTGCGTAATGTGCTG+CAGCACATGAGGCACGTCG ((((((((.(.((((((((+)))))))).).)))))))) | 53.6 °C
CGACGTGCGTAATGTGCTG+CAGCACATGGAGCACGTCG ((((((((...((((((((+))))))))...)))))))) | 60.7 °C
CGACGTGCGTAATGTGCTG+CAGCACATGTCGCACGTCG (((((((((..((((((((+))))))))..))))))))) | 56 °C
CGACGTGCGTAATGTGCTG+CAGCACATGTGGCACGTCG ((((((((...((((((((+))))))))...)))))))) | 51.8 °C
CGACGTGCGTAATGTGCTG+CAGCACATGTTGCACGTCG ((((((((...((((((((+))))))))...)))))))) | 51.7 °C
